The values below are quoted from earlier work in US5608039A, “Single chain B3 antibody fusion proteins and their uses” (The United States of America as represented by the …, priority 1994, dated 1997).

The conditions of the series: in vivo.

Turning to PE, the toxicity entry is reported as “highly toxic compounds that typically bring about death through liver toxicity”.
